The source of these data is patent US20120329067A1.

For experiment [1], the target named is ZFN with wild-type FokI cleavage domain carrying R487D (DD architecture). The experiment is described as follows: cell-based or functional assay.
The target in experiment [2] is ZFN with wild-type FokI cleavage domain carrying the DAMQS interface (DS architecture). Briefly: cell-based or functional assay.

B1: ZFN with wild-type FokI cleavage domain carrying D483R (RR architecture) (enzyme, part only; not given: zinc finger domain and linker, part only)
chain, part: QLVKSELEEKKSELRHKLKYVPHEYIELIEIARNSTQDRILEMKVMEFFMKVYGYRGKHLGGSRKPDGAIYTVGSPIDYGVIVDTKAYSGGYNLPIGQAREMQRYVEENQTRNKHINPNEWWKVYPSSVTEFKFLFVSGHFKGNYKAQLTRLNHITNCNGAVLSVEELLIGGEMIKAGTLTLEEVRRKFNNGEINF
For B1, the stimulation of mutagenesis in an EGFP reporter cell line (P3/E4 cleavage site), relative to wt (fraction of wt activity) amounted to 0.167 in experiment [1] and 0.33 in experiment [2].
